Measured values reported in patent US20210380664A1 (AICURIS ANTI INFECTIVE CURES, published 2021).

Biological target: HCMV virus particles, strain TB40/E
Assay: cell-based or functional assay

For GRHIYIYVPDPDVAFVPLGMTDYLVIVEDDDSAIIPCRTT [PDGFR-alpha derived 40mer peptide GT40], the “EC50 of inhibition of infection of HFFs by peptide” value was 2 nmol/mL.
